# According to the nanobody polyreactivity screen of Harvey et al. (2022):
# Test: yeast display, Sf9 membrane polyspecificity reagent, FACS + sequencing; frameworks hold sequencing errors
# Summary of the method: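 Polyreactivity labels are assigned by the sorting gate from which each nanobody was recovered. The gates were low and high (top ~1%), set on anti-HA fluorescence for expression and streptavidin fluorescence for reagent binding. Before sorting, galactose-induced (36–48 hours) yeast display cells were stained for 1 hour at 4 °C with 10% biotinylated, detergent-solubilized Sf9 membrane reagent.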
row,Sequence,polyreactivity (PSR sort gate)
1,QVQLVESGGGLVQAGGSLRLICAASGRIFTYNGMGWYRQAPGKERELVAAISSGGSTYADSVKGRFTISRDNAKNTVYLQMNSLKPEDTAVYYCAAVKGYQGSSYQRVDWEGDYWGQGTQVSVSS,low polyreactivity
2,QVQLVESGGGLVQAGGSLRLSCAAPGNTFQYYAMGWSRQAPGKEREFVAAISRRGGSTYYADSVKGRFTISRDNAKNTVYLQMNSLKPEDTAVYYCNKVIFLSQSSYSFLYAYDYWGQGTQVTVSS,high polyreactivity
3,QLQLVETGGGLVQAGGSLRLSCAATGSTFQGYPMGWYRQAPGKDRELVAAISWNGGSTYYADSVKGRFTISRDNAKNTVYLQMNSLKPEDTAVYYCAAYSFAYSYNYWGQGTQVTVSS,high polyreactivity
4,QVQIVDSGGGLVQAGGRLRLTCAASGSTFYVYTMGWSRQAPGKESELFDRISSGGSTKYADSVKGRFTISRVNANNTVYLQMNILKPEDTAVYYCNADGLYLFGISYGKFLKYGHWGHGTQVTVSS,low polyreactivity
5,QVQLVESGGGLVQAGGSLRLSCAASGNTFRVYTMGWYRQAPGKERELVAAINSSGRTNYADSVKGRFTISRDNAKNTVYLLMNCLKPEDTAVYYCAADYYQWSTFLGVYEYAYWGQGTQVTVSS,low polyreactivity
6,QVQLVESGGGLVQAGGSLRLSCAASGSIFWGYAMGWNRQAPRKEREMVATITYGGDSTYYADSVKGRFTISRDNAKNTVYLQMNSLKPEDTAVYYCNVGVEPYDYVYWGQGTQVTVSS,low polyreactivity
7,QVQLVESGGGLVQAGGSLRLSCAASGLIFRYNAMGWYRQAPGKEMELVASITSDGSTNYADSVKGRFTISRDNAKNTVYLQMNSLKPEDTAVYYCAADGYTYWYYQLIPDYDYWGQGTQVTVSS,low polyreactivity
8,QVQLVESGGGLVQAGGSLRLSCAASGRIFYYYGMGWYRQAPGKERELVAAISNGGRTYYADSVKGRFTISRDNAKNTVYLQMTSLKPEDTAVYYCAALTRGRGGYDYWGQGTQVTVSS,high polyreactivity
9,QVQLVESGGGLDQAGGSLRLSCPASGSTFLNNAMGRYRQAPGKERELVATITSGGITNYADSVKGRFTISRDNAKNCVYLQMNSLKPEDTAVYYCNADTWGFTYYYWGQGTQVTVSS,low polyreactivity
10,QGQLVESGGGLVQAGGSLRLSCAASGGTFSDNVMGWYRQAPGKERELVAANSRSGGSTYYADSVKGRNTISRDNAKNTLSLQMNSLKPEDTAVYYCNAIGSKRGAYKAAFNYWGQGTQVTVSS,high polyreactivity
11,QVQLVESGGGLVQAGGSLRLSCAASGSIFKWNAMGWYRQAPGKEWELVAAITWSGGRTYYADSVKGRFTISRDNAKNTVYLQMNSLKPEDTAVYYCAATQYRSDGWRYDYWGQGTQVTVSS,high polyreactivity
12,QVQLVESGGGLVQAGGSLRLSCAASGNTFTWYTMGWYRQAPGKERELVAAISSSGGNTYYADSVKGRFTISRDNAKNTVYLQMNSLKPEDTAVYYCAADLSSAYGHDYRGQGTQVTVSS,low polyreactivity
13,QVHLVESGGGLVQAGRSLRLICAASGSTFPTYAMGWYRQAPGKETELVAAISTRGGSTYYADSVKGRFTISRDNAKNTVYLQMNSVKPEDTAVYYCATGKTVGRYHYEYWGQGTQVTVSS,low polyreactivity
14,QVQLVESGGGLVQAGGSLRLSCAASGSTFRIYAMGWYRQAPGKERELVARISWNGGRTYYADSVKGRFTISRDNAKNTVYLQMNSLKPEDTAVYYCNARSQGWYYFPDNDYWGQGTQVTVSS,high polyreactivity
15,QVQLVESGGGLVQAGGSLRLSCAASGSIFQYNAMGGSRQSPGEDRELVAAISRSGGSTYYADSVKGRFTNSRDNAKNTVYLQMNSLKPEDTAVYYCNAVLGYYSPYDYWVQGTQVTVSS,low polyreactivity
16,QVQLVESGGGLVQAGGSLRLSCAASGSITPRNAMGWYRQAPGKERELVARISGSGGTTYYADSVKGRFTISRDNAKNTVYLQMKSLKPEDTAVYYCAASVRWNKYTLYDYWGQGTQVTVSS,low polyreactivity
17,QVQLVESGGGLVQAGGSLRLSCAATGRIVTSNAMGWYRQAPGKERELVAVISRRGGSTYYADSVKGRFTISRDNAKNTVYLQMNRLKPEETAVYYCARRPYSYTRYEYWGQGTQVTVSS,low polyreactivity
18,QVQLVESGGGLVQAGGSLRLSCAASGFIFTSYAMGWYRQAPGKERELVAAIDYSGGSTYYADSVKGRFTISRDNAKNTVYLQMNSLKPEDTAVYYCAAGDGLWPGSQTYDYWGQGTQVTVSS,low polyreactivity
19,QVQLVESGGGLVQAGGSLRLSCAASGSIFSSYAMGWYRQAPGKERELVAAITRTGGRTYYADSVKGRFTISRDNAKNTVYLQMNSLKPEDTAVYYCAAKQVSRGVAAYDYWGQGTQVTVSS,high polyreactivity
20,QVQLVESGGGLVHGGGSLRLSCAASGSILHYNTMGWYRQAPGKEREFVASISYSGGSTYYADSVKGRFTISRDNAKNTVYLQMNSLKPEDTAVYYCATEGMDFWFIYYYWGQGTQVTVSS,low polyreactivity
21,QVQLVDSGGGLVQAGGSLRLSCAASVRIFTINAMGWYRPAPGKDRELVAAISDGGGSTYYADSVKGRFTISRYNAKNTVYLQMNSLKPEDTAVYYCARKSWPKERRVDPGYDYGGQGTQVTVSS,low polyreactivity
